In this test the target is T1, NusA acidic repeat 2 domain (NusA-AR2) (E. coli, UniProt P0AFF6 426-495).
T1 construct: acidic repeat 2 domain (C-terminal domain) of E. coli NusA
As to the kind of experiment: NMR titration; 2H,15N-NusA-SKK titrated with NusA-AR2 and 15N-NusA-AR2 titrated with NusA-SKK (up to 1:7.5); 5 mm tubes; 298 K; 50 mM MOPS pH 6.5, 100 mM NaCl, 150 mM D-glucose, 5 mM DTT; two-state fit of chemical shift changes. The settings on record: both partners purified.

A value given as a limit tells only on which side of the number the result lay.

B1: NusA-SKK (S1, KH1 and KH2 domains of NusA) (domain or fragment)
chain: not shown
In the case of B1, the Kd (commonly a measure of binding affinity in units of concentration) was under 341 µM.

For the origin of these results see publication PMC7171158, “NusA directly interacts with antitermination factor Q from phage λ” (Scientific Reports, 2020).
